Data as given in patent US20240034813A1 (Janssen / Centocor, published 2024).

Assays:
[1] = molecular target: T1, recombinant cMet/HGFR with c-terminal His-tag, Cy5-labeled (UniProt P08581 25-932, limits assumed, Cy5 label (reacted with Cy5 Mono NHS Ester; sites not stated)); experiment: competitive TR-FRET (Eu-amivantamab/Cy5-c-MET), EC50 ratio vs Reference Material; Ex. 2 Formulation 3 (acetate), 3 months at 40 C
T1 construct: Commercial protein; also called Cy5-c-MET; Cy5-labeled c-MET antigen; not shown: C-terminal His-tag
From the text: (§1) In this procedure, varying concentrations of unlabeled bispecific EGFR-cMet antibody sample compete with donor fluorophore (Europium (Eu) chelate) labeled bispecific EGFR-cMet antibody for binding to an acceptor fluorophore (Cy5)-labeled c-MET antigen. Excitation of the donor fluorophore results in a transfer of energy to the bound acceptor fluorophore (FRET process). The resultant FRET is detected by emission of light at 665 nm using a microplate reader capable of measuring time-resolved fluorescence. Sample dose response curves are compared to the Reference Material (RM).
(§2) c-MET Binding Materials and Methods. Certified commercial cMet, a recombinant cMet/HGFR with c-terminal His-tag is reacted with certified commercial Cy5 Mono NHS Ester to produce Cy5-labeled c-MET. Validated bispecific EGFR-cMet antibody is reacted with certified commercial Europium (Eu) chelate to produce Eu labeled bispecific EGFR-cMet antibody. […] Fluorescence is then measured by spectrophotometry at 665 nm, plotted against antibody concentration and analyzed by a four-parameter logistic model. The antibody concentration required to obtain half of the maximum fluorescence response (EC50) is determined for RM, assay control and samples. The potencies of assay control and samples are calculated based on the ratio of the sample (or control) and RM EC50 values and reported as a percentage activity relative to the RM.

[2] = molecular target: T1, recombinant cMet/HGFR with c-terminal …; experiment: competitive TR-FRET (Eu-amivantamab/Cy5-c-MET), EC50 ratio vs Reference Material; Ex. 2 Formulation 3 (acetate), 1 month at 40 C
From the text: as §1, §2

[3] = molecular target: T1, recombinant cMet/HGFR with c-terminal …; experiment: competitive TR-FRET (Eu-amivantamab/Cy5-c-MET), EC50 ratio vs Reference Material; Ex. 2 Formulation 1 (10 mM histidine), T0, 25 C table
From the text: as §1, §2

[4] = molecular target: T1, recombinant cMet/HGFR with c-terminal …; experiment: competitive TR-FRET (Eu-amivantamab/Cy5-c-MET), EC50 ratio vs Reference Material; Ex. 12 drug product with rHuPH20, 12 months at 5 C
From the text: as §1, §2

[5] = molecular target: T1, recombinant cMet/HGFR with c-terminal …; experiment: competitive TR-FRET (Eu-amivantamab/Cy5-c-MET), EC50 ratio vs Reference Material; Ex. 2 Formulation 2 (50 mM histidine), T0, 5 C table
From the text: as §1, §2

[6] = molecular target: T2, recombinant human EGFR/ErbB1/HER1 with C-terminal His tag, Cy5-labeled (human, UniProt P00533 25-645, Cy5 label (reacted with Cy5 Mono NHS Ester; sites not stated)); experiment: competitive TR-FRET (Eu-amivantamab/Cy5-EGFR), EC50 ratio vs Reference Material; Ex. 3 acetate formulation, 6 months at 25 C, untreated control
T2 construct: Commercial protein; also called Cy5-EGFR; Cy5-labeled EGFR antigen; not shown: C-terminal His tag
From the text: as §1, with “EGFR” for “c-MET”, “RM.” for “Reference Material (RM).”
as §2, with “EGFR” for “c-MET”, “EGFR,” for “cMet,”, “human EGFR/ErbB1/HER1” for “cMet/HGFR”, “C-terminal His tag” for “c-terminal His-tag”, “EGFR.” for “c-MET.”, “Eu-labeled” for “Eu labeled”

[7] = molecular target: T1, recombinant cMet/HGFR with c-terminal …; experiment: competitive TR-FRET (Eu-amivantamab/Cy5-c-MET), EC50 ratio vs Reference Material; Ex. 11 drug product, 9 months at 5 C
From the text: as §1, §2

[8] = molecular target: T1, recombinant cMet/HGFR with c-terminal …; experiment: competitive TR-FRET (Eu-amivantamab/Cy5-c-MET), EC50 ratio vs Reference Material; Ex. 12 drug product with rHuPH20, 3 months at 5 C
From the text: as §1, §2

cMET Binding % activity relative to RM [1]: 85%
cMET Binding % activity relative to RM [2]: 100%
cMET Binding % activity relative to RM [3]: 87%
cMET Binding activity relative to Reference Material (%) [4]: 97%
cMET Binding % activity relative to RM [5]: 102%
EGFR Binding % activity relative to RM [6]: 83%
cMET Binding activity relative to Reference Material (%) [7]: 101%
cMET Binding activity relative to Reference Material (%) [8]: 97%
B1: amivantamab (bispecific antibody, human IgG1, kappa)
heavy 1: not shown
light 1: not shown
heavy 2: not shown
light 2: DIQMTQSPSSVSASVGDRVTITCRASQGISNWLAWFQHKPGKAPKLLIYAASSLLSGVPSRFSGSGSGTDFTLTISSLQPEDFATYYCQQANSFPITFGQGTRLEIKRTVAAPSVFIFPPSDEQLKSGTASVVCLLNNFYPREAKVQWKVDNALQSGNSQESVTEQDSKDSTYSLSSTLTLSKADYEKHKVYACEVTHQGLSSPVTKSFNRGEC
notes: The samples tested were high concentration (160 mg/mL) formulations, fresh or stored or stressed; also called JNJ-61186372; bispecific EGFR-cMet antibody
